Article PMC9371650 (Proceedings of the National Academy of Sciences of the …, 2022)

T1: ectodomain of glycoprotein B (ect-gB), Epstein-Barr virus (Epstein-Barr virus (HHV-4), strain M81 …)
T1 chain 1: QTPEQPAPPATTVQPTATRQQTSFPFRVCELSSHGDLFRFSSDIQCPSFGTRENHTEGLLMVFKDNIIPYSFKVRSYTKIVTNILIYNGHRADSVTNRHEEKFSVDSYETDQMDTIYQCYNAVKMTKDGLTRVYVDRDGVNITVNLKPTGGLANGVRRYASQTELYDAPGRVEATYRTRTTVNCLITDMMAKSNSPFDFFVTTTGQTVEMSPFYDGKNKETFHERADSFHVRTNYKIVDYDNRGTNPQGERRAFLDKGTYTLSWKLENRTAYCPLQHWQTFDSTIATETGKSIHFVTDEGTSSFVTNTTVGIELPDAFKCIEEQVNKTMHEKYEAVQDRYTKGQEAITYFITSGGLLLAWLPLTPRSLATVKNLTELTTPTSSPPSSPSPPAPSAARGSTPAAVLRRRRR
T1 chain 2: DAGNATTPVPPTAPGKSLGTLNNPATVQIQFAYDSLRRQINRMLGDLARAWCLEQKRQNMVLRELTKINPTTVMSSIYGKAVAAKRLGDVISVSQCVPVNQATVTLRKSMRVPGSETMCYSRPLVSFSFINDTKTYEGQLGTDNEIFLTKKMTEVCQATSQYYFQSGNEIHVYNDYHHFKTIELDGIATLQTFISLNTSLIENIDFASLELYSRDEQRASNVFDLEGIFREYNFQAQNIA

B1: 3A3, rabbit anti-EBV gB neutralizing monoclonal antibody (antibody, V domains shown)
VH: QSVKESGGRLVTPGTPLTLTCTVSGFSLSSYAMSWVRQAPGKGLEYIGVIYASGSTYYASWAKGRFTISRTATTVDLKITSPTTEDTATYFCGRGVSTNMWGPGTLVTVSS
VL: DLVMTQTPSSVSAAVGGTVTIKCQASQSLGGGLAWYQQKPGQRPKLLIYSASTLESGVPSRFRGSGSGTEFTLTISDLECADAATYYCQSAYGPTSNGLFNAFGGGTKVVIK
B2: antigen binding fragment of 3A3 (3A3Fab) (Fab, V domains shown)
VH: QSVKESGGRLVTPGTPLTLTCTVSGFSLSSYAMSWVRQAPGKGLEYIGVIYASGSTYYASWAKGRFTISRTATTVDLKITSPTTEDTATYFCGRGVSTNMWGPGTLVTVSS
VL: DLVMTQTPSSVSAAVGGTVTIKCQASQSLGGGLAWYQQKPGQRPKLLIYSASTLESGVPSRFRGSGSGTEFTLTISDLECADAATYYCQSAYGPTSNGLFNAFGGGTKVVIK
B3: 3A5, rabbit anti-EBV gB neutralizing monoclonal antibody (antibody, V domains shown)
VH: QSVKESGGRLVTPGTPLTLTCTVSGFSLSSYEMGWVRQAPGEGLEWIGTISTGGSSYYASWAKGRFTISRTSTTVDLKMTSLTTADTATYFCARGYGGYGIGAGYFNIWGPGTLVTVSS
VL: ALVMTQTPSSVSEPVGGTVTIKCQASQSISSYLAWYQRKPGQRPKLLIYGTSTLASGVPSRFIGSGSGTDYTLTISDLECDDAATYYCQQGFSTSNVYNSFGGGTKVDIK
B4: antigen binding fragment of 3A5 (3A5Fab) (Fab, V domains shown)
VH: QSVKESGGRLVTPGTPLTLTCTVSGFSLSSYEMGWVRQAPGEGLEWIGTISTGGSSYYASWAKGRFTISRTSTTVDLKMTSLTTADTATYFCARGYGGYGIGAGYFNIWGPGTLVTVSS
VL: ALVMTQTPSSVSEPVGGTVTIKCQASQSISSYLAWYQRKPGQRPKLLIYGTSTLASGVPSRFIGSGSGTDYTLTISDLECDDAATYYCQQGFSTSNVYNSFGGGTKVDIK
B5: 1E12 (antibody, V domains shown)
VH: QSVKESGGRLVTPGTPLTLTCTVSGIDLSTYVMTWVRQAPGKGLECIGIIGYGGSTYYASWATGRFTISKTSTTVDLRMTSLTTEDTATYFCARGVSSNLYRGMNLWGQGTLVTVSS
VL: ALVMTQTPSPVSAAVGGTVSISCQSSPSVYSNYLSWYQQKPGQPPKLLIYETSKLESGVPSRFSGSGSGTQFTLTISGVQCDDAATYYCAGGYSGISDTFAFGGGTKVDIK

Legend:
[1] = target: ectodomain of glycoprotein B (ect-gB), Epstein-Barr virus (Epstein-Barr virus); test: native gel or EMSA
[2] = target: virion-encoded gB expressed on EBV-positive Akata cells (Epstein-Barr virus (HHV-4), strain …, UniProt P03188, strain); test: cell-based or functional assay
[3] = target: T1, ectodomain of glycoprotein B (ect-gB), …; test: SPR
[4] = target: T1, ectodomain of glycoprotein B (ect-gB), …

Row | Molecule | IC50 of neutralization of Akata-EBV infection of HNE1 epithelial cells [2] | IC50 of neutralization of CNE2-EBV infection of Akata B cells [2] | Kd [3] | also measured
1 | ectodomain of glycoprotein B (ect-gB), Epstein-Barr virus (domain or fragment) |  |  |  | stoichiometry N [1]: 3
2 | B1 | 0.08 µg/mL | 2.97 µg/mL |  | 
3 | B2 |  |  | ~3.49 nM | 
4 | B3 | 0.31 µg/mL | 4.9 µg/mL |  | 
5 | B4 |  |  | ~3.93 nM | 
6 | B5 |  |  |  | binding result [4]: binds
